In patent US20230056252A1 (Gilead, published 2023):

Key:
[1] = molecular target: T1, MabSelect SuRe (engineered Protein A); assay: 500 ml Expi293 expression, MabSelect SuRe capture and cation exchange; purified homodimer yield; parental reference
T1 construct: also called MabSelect SuRe column
Experimental: 500 ml of Expi293 cells were transfected with 0.5 mg DNA encoding selected huSP34 scFv-Fc Protein A knockout variants according to manufacturer's protocol. Four days post transfection, the cell-free clarified supernatant was collected and loaded to a MabSelect™ SuRe™ (Cytiva Life Sciences) column. Afterwards the column was washed with a low salt buffer of 25 mM Tris HCl pH 7.5, 25 mM NaCl for 10 column volumes (CV), then high salt wash of 25 mM Tris HCl pH 7.5, 500 mM NaCl for 5CV to remove non-specific binding, and finally washed with a low salt wash of 25 mM Tris HCl pH 7.5, 25 mM NaCl for 10CV. To elute the antibody, an isocratic elution step of 100 mM sodium acetate pH 3.7 was performed. The eluted pool was neutralized to pH 6.0 with 1 M Tris HCl pH 9.0, and subjected to a cation ion purification, HiTrap SP HP (Cytiva Life Sciences) to further remove impurities. The cation captured protein was washed with 10 mM sodium phosphate pH 7.0 for 10CV, then eluted in 0-30% gradient of 10 mM sodium phosphate pH 7.0, 1M NaCl for 50CV to separate the desired two targeting arm antibody (heterodimer) from the one targeted arm antibody (homodimer). […] Concentration of the formulated protein was measured by A280. Purity was assessed as percent monodispersed by analytical size-exclusion chromatography. Identity of the bispecific antibody was determined by Mass Spec (MS).

[2] = molecular target: T2, biotinylated CD3 epsilon: delta heterodimer protein (Amsbio AMS.CDD-H52WO) (Homo sapiens (Human), UniProt P07766 23-126; P04234 22-105); assay: BLI (Octet), corresponding huSP34 Fab variant
Experimental: (§1) The CD3 binding kinetics of the purified huSP34 Fabs were determined using OctetRed384 (Pall ForteBio, CA) biolayer interferometry (BLI). […] Streptavidin (SA) coated biosensors tips (Pall ForteBio, CA) were used to capture biotinylated CD3 epsilon: delta heterodimer and typical immobilization levels captured on the SA sensors were 1 nm which approximately translates to 300 ng/ml of captured protein. For kinetic measurements biosensors were first pre-wetted with assay buffer for 10 minutes to remove protective sucrose coating followed by the recommended regeneration conditions for standardization of the biosensor surface for the experiment. In order to load the biosensors with antigen, 300 ng/ml of biotinylated CD3 epsilon: delta heterodimer protein (Amsbio AMS.CDD-H52WO) was immobilized on the SA sensor for 900 seconds. The CD3 loaded biosensors were then blocked with 20 ug/ml biocytin (sigma) for 200 seconds and then dipped into assay buffer containing wells for 200 seconds to remove any non-specific protein or unbound CD3 heterodimer.
(§2) CD3 loaded and biocytin blocked biosensors were then transferred into fresh assay buffer for 200 seconds to collect a baseline read. Kinetic measurements for anti-CD3 Fab and bispecific antibody binding were performed by dipping the CD3-coated biosensors into wells containing multiple concentrations of Fab or Ab (0-300 nM) for 100 seconds followed by a 300 second dissociation time by transferring the biosensors into assay buffer containing wells. The CD3 loaded sensors were then regenerated for the next kinetic measurement. Biosensors were generated by removing bound Fabs or Ab from immobilized CD3 on SA biosensors. Regeneration conditions used consisted of 3 cycles of 5 seconds of dipping the biosensors in Regeneration Buffer (10 mM Glycine HCl pH 1.5) followed by Assay Buffer (10 mM sodium phosphate pH 7.4, 140 mM Sodium Chloride, 0.005% Tween20 with 0.2% BSA).

[3] = molecular target: T3, CD3 expressed on cell-surface of primary human T cells (human, UniProt P07766 23-207; P04234 22-171); assay: flow cytometry competition vs murine SP34-AF488 on human T cells, n = 1
T3 construct: also called cell-surface CD3; human CD3
Experimental: (§3) Binding of humanized SP34 Fab variants to CD3 expressed on cell-surface of primary human T cells was evaluated in a flow cytometry-based competition assay.

[4] = molecular target: T2, biotinylated CD3 epsilon: delta …; assay: BLI (Octet), huSP34 variant in Fab format
Experimental: as §1, §2

[5] = molecular target: T3, CD3 expressed on cell-surface of …; assay: flow cytometry competition vs murine SP34-AF488 on human T cells, average
Experimental: as §3

[6] = molecular target: T3, CD3 expressed on cell-surface of …; assay: flow cytometry competition vs murine SP34-AF488 on human T cells, n = 2
Experimental: as §3

[7] = molecular target: T2, biotinylated CD3 epsilon: delta …; assay: BLI (Octet), corresponding huSP34 Fab variant; remark: listed apart in the source
Experimental: as §1
CD3 loaded and biocytin blocked biosensors were then transferred into fresh assay buffer for 200 seconds to collect a baseline read. […]

[8] = molecular target: T3, CD3 expressed on cell-surface of …; assay: flow cytometry competition vs murine SP34-AF488 on human T cells, average; remark: listed apart in the source
Experimental: as §3
(§4) A second round of huSP34 Fab variants were characterized using the same flow cytometry-based competition assay as described above.

[9] = molecular target: T3, CD3 expressed on cell-surface of …; assay: flow cytometry competition vs murine SP34-AF488 on human T cells, n = 1; remark: listed apart in the source
Experimental: as §3, §4

[10] = molecular target: T3, CD3 expressed on cell-surface of …; assay: flow cytometry competition vs murine SP34-AF488 on human T cells, n = 2; remark: listed apart in the source
Experimental: as §3, §4

[11] = molecular target: T3, CD3 expressed on cell-surface of …; assay: flow cytometry on PBMCs, % anti-huIgG+ CD4+ cells, donor hu 921
Experimental: (§5) Briefly, PBMCs from healthy human donors and healthy rhesus or cynomolgus monkey donors were incubated with different concentrations of HIV×CD3 bispecific molecules for 1 hour at RT. […] Cells were then washed, fixed/permeabilized, and analyzed on BD LSRFortessa. The percentage of α-huIgG-APC-positive CD4+ and CD8+ T cells and the mFI of the α-huIgG-APC of CD4+ and CD8+ cells were collected, and data analyzed using GraphPad Prism.

[12] = molecular target: T3, CD3 expressed on cell-surface of …; assay: flow cytometry on PBMCs, % anti-huIgG+ CD4+ cells, donor hu 711
Experimental: as §5

[13] = molecular target: T4, CD3 on cynomolgus monkey T cells in PBMCs (cynomolgus monkey, UniProt Q95LI5 22-198); assay: flow cytometry on PBMCs, % anti-huIgG+ CD4+ cells, donor cy 2177
T4 construct: whole, on cells; also called cynomolgus CD4+ and CD8+ T cells
Experimental: as §5

[14] = molecular target: T3, CD3 expressed on cell-surface of …; assay: flow cytometry on PBMCs, % anti-huIgG+ CD8+ cells, donor hu 921
Experimental: as §5

[15] = molecular target: T3, CD3 expressed on cell-surface of …; assay: flow cytometry on PBMCs, % anti-huIgG+ CD8+ cells, donor hu 711
Experimental: as §5

[16] = molecular target: T4, CD3 on cynomolgus monkey T cells in …; assay: flow cytometry on PBMCs, % anti-huIgG+ CD8+ cells, donor cy 2177
Experimental: as §5

T4 sequence (Q95LI5 22-198): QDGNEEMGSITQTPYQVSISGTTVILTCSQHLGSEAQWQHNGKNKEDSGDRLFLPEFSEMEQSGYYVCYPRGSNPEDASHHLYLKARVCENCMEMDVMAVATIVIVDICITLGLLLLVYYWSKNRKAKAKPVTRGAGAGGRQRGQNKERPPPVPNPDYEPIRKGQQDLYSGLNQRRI

B1: huSP34.13.8 scFv AAS + SAV + R (Fc fusion)
chain: EVQLVESGGGLVQPGGSLRLSCAASGFTFSTYAMNWVRQAPGKGLEWVGRIRSKYNNYATYYAASVKGRFTISRDDSKNTLYLQMNSLRTEDTAVYYCVRHGNFGHSYVSWFAYWGQGTLVTVSSGGGGSGGGGSGGGGSGGGGSQAVVTQEPSLTVSPGGTVTLTCGSSTGAVTTGHYANWVQQKPGQAPRGLIGGTNKRAPGVPARFSGSLLGGKAALTISGAQPEDEAEYYCALWYSNRWVFGGGTKLTVLEPKSSDKTHTCPPCPAPEAAGGPSVFLFPPKPKDTLMISRTPEVTCVVVDVSHEDPEVKFNWYVDGVEVHNAKTKPREEQYNSTYRVVSVLTVLHQDWLNGKEYKCKVSNKALPASIEKTISKAKGQPREPQVYTLPPSREEMTKNQVSLSCAVKGFYPSDIAVEWESNGQPENNYKTTPPVLDSDGSFFLVSKLTVDKSRWQQGNVFSCSVMHEALHNRYTQKSLSLSPGK
notes: also called huSP34.13.8scFv-Fc; parent
For B1, the “scFv-Fc Homodimer Yield Relative to WT (e.g. Protein A binding)” value [1] was 100%.

B2: huSP34.3.4 Fab-HF (Fab, V domains shown)
VH: EVQLVESGGGLVQPGGSLRLSCAASGFTFNTYAMNWVRQAPGKGLEWVGRIRSKYNNYATYYADSVKGRFTISRDDSKNSLYLQMNSLRTEDTAVYYCVRHGNFGHSYVSWFAYWGQGTLVTVSS
VL: QAVVTQEPSLTVSPGGTVTLTCGSSTGAVTTSHYANWVQQKPGQAPRGLIGGTSKRAPWTPARFSGSLLGGKAALTLSGAQPEDEAEYYCALWYSALWVFGGGTKLTVL
Work on B2 yielded a Kd [2] of 86 nM, an IC50 [3] greater than 20 µg/mL and a Kd [4] of 86 nM. It also gave an IC50 [5] of 17.3 µg/mL and an IC50 [6] of 17.3 µg/mL.

B3: huSP34.13.8 Fab-HF (Fab, V domains shown)
VH: EVQLVESGGGLVQPGGSLRLSCAASGFTFSTYAMNWVRQAPGKGLEWVGRIRSKYNNYATYYAASVKGRFTISRDDSKNTLYLQMNSLRTEDTAVYYCVRHGNFGHSYVSWFAYWGQGTLVTVSS
VL: QAVVTQEPSLTVSPGGTVTLTCGSSTGAVTTGHYANWVQQKPGQAPRGLIGGTNKRAPGVPARFSGSLLGGKAALTISGAQPEDEAEYYCALWYSNRWVFGGGTKLTVL
With B3 the Kd [7] was 2.49 nM, the IC50 [8] was 0.25 µg/mL and the IC50 [9] was 0.36 µg/mL. The IC50 [10] was 0.14 µg/mL.

B4: huSP34.4.2 Fab-HF (Fab, V domains shown)
VH: EVQLVESGGGLVQPGGSLRLSCAASGFTFSTYAMNWVRQAPGKGLEWVGRIRSKYNNYATYYAASVKGRFTISRDDSKNSLYLQMNSLRTEDTAVYYCVRHGNFGHSYVSWFAVWGQGTLVTVSS
VL: QAVVTQEPSLTVSPGGTVTLTCGSSTGAVTTSNYANWVQQKPGQAPRGLIGGTSNRAPWTPARFSGSLLGGKAALTLSGAQPEDEAEYYCALWYSNLWVFGGGTKLTVL
B4 gave an IC50 [3] greater than 20 µg/mL, an IC50 [6] greater than 20 µg/mL and a Kd [7] of 45.3 nM.

B5: huSP34.3.6 Fab-HF (Fab, V domains shown)
VH: EVQLVESGGGLVQPGGSLRLSCAASGFTFNTYAMNWVRQAPGKGLEWVGRIRSKYNNYATYYADSVKGRFTISRDDSKNSLYLQMNSLRTEDTAVYYCVRHGNFGHSYVSWFAYWGQGTLVTVSS
VL: QAVVTQPPSLTVSPGGTVTLTCGSSTGAVTTGHYANWVQQKPGQAPRGLIGGTSNRAPGVPARFSGSLSGGKAALTISGAQPEDEAEYYCALWYSARWVFGGGTKLTVL
B5 was tested, and the Kd [2] was 19 nM, the IC50 [3] was 8.48 µg/mL and the Kd [4] was 19 nM. The IC50 [5] was 4.75 µg/mL and the IC50 [6] was 1.03 µg/mL.

B6: hCD4 D1.22 Fc AAS + W + YTE/huSP34.39.13 AAS + SAV + R (bispecific antibody, human IgG1, lambda, L234A L235A)
chain: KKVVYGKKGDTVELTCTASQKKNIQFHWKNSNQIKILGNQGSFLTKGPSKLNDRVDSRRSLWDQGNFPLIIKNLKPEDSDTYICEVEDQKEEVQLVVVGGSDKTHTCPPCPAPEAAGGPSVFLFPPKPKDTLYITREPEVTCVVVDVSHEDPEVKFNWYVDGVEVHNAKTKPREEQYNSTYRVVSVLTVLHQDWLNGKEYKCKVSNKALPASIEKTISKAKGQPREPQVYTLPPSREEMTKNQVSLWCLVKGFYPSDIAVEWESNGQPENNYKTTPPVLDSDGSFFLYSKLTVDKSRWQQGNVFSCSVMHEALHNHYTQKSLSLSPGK
heavy: EVQLVESGGGLVQPGGSLRLSCAASGFTFNTYAMNWVRQAPGKGLEWVGRIRSKYNNYATYYADSVKSRFTISRDDSKNSLYLEMNSLRTEDTAVYYCVRHGNFGHSYVSWFAYWGQGTLVTVSSASTKGPSVFPLAPSSKSTSGGTAALGCLVKDYFPEPVTVSWNSGALTSGVHTFPAVLQSSGLYSLSSVVTVPSSSLGTQTYICNVNHKPSNTKVDKKVEPKSCDKTHTCPPCPAPEAAGGPSVFLFPPKPKDTLMISRTPEVTCVVVDVSHEDPEVKFNWYVDGVEVHNAKTKPREEQYNSTYRVVSVLTVLHQDWLNGKEYKCKVSNKALPASIEKTISKAKGQPREPQVYTLPPSREEMTKNQVSLSCAVKGFYPSDIAVEWESNGQPENNYKTTPPVLDSDGSFFLVSKLTVDKSRWQQGNVFSCSVMHEALHNRYTQKSLSLSPGK
light: QAVVTQEPSLTVSPGGTVTLTCGSSTGAVTTGHYANWVQQKPGQAPRGLIGGTSNRAPGVPARFSGSLLGGKAALTISGAQPEDEAEYYCALWYSNRWVFGGGTKLTVLGQPKAAPSVTLFPPSSEELQANKATLVCLISDFYPGAVTVAWKADSSPVKAGVETTTPSKQSNNKYAASSYLSLTPEQWKSHRSYSCQVTHEGSTVEKTVAPTECS
notes: also called 180; CD4 x huSP34 bispecific 180
For B6, the EC50 [11] was 0.09 µg/mL, the EC50 [12] was 0.54 µg/mL and the EC50 [13] was 0.5 µg/mL. It also gave an EC50 [14] of 0.08 µg/mL, an EC50 [15] of 1.1 µg/mL and an EC50 [16] of 1.09 µg/mL.
